# Substrate: O=[N+]([O-])c1ccc(O[C@@H]2OC[C@@H](O)[C@H](O)[C@H]2O)cc1
# Test: purified protein
# Format: biochemical, Caldicellulosiruptor owensensis
# Details: 50 mM sodium citrate, 150 mM NaCl, pH 5.0, 75 °C, 0.05 to 2.4 mM pNPX
protein,measurement,value
"Coxyl A (Caldicellulosiruptor owensensis OL) (protein, His-tagged in pET-28b(+), E. coli BL21(DE3); homodimer) MKIELYPEKTSGKINKFWTKCVGSCHAATALREDWRRQLRKCRQELGFEYLRCHGWLNDDMSVCFRNEDGKLWFSFFNIDTIIDFLLDIGMKPFIELSFMPEALASGTKTVFHYKGNITPPKSYEEWGQLVEELARHLVKRYGKNEVKEWFFEVWNEPNLKDFFWAGTMEEYFELYKHAAFAIKKVDPDLKVGGPASAIDAWIPELKEFCEKNNVPIDFISTHQYPTDLAFSTSSNMEEAMAKAKRGELADRVKKAIEEASPLPVYYTEWNNSPSPRDPYHDIPYDAAFIVKTIIDIVDLPLGCYSYWTFTDIFEECGQSSLPFHGGFGLLNIHGIPKPSYRAFQILDKLNGEKINAEAEDISPTIDFIATKNNNEIVLIISNHNVPLSPIENENILVTVNGLKGCKEISIERIDEYNANPKRKWVEMGSPEYLNKDQIEELIEASKPKKEVVSWRITGDNQLAFELNILPHSVLGVTIKTE",Km,1600 ± 100 µM
same,Vmax,3930 µmol/min/mg
same,kcat,3630 ± 122 s⁻¹

# Reference: paper PMC4134300, “Biochemical Characterization of Two Thermostable Xylanolytic Enzymes Encoded by a Gene Cluster of Caldicellulosiruptor owensensis” (PLoS ONE, 2014)
